T1: ABI1 (Arabidopsis thaliana, UniProt P49597)
T1 construct: Full length ABI1 and ABI2 were cloned into a modified pSUMO vector; made in house; host or cells: E. coli BL21 (DE3) pLysS
T1 sequence (P49597 1-434): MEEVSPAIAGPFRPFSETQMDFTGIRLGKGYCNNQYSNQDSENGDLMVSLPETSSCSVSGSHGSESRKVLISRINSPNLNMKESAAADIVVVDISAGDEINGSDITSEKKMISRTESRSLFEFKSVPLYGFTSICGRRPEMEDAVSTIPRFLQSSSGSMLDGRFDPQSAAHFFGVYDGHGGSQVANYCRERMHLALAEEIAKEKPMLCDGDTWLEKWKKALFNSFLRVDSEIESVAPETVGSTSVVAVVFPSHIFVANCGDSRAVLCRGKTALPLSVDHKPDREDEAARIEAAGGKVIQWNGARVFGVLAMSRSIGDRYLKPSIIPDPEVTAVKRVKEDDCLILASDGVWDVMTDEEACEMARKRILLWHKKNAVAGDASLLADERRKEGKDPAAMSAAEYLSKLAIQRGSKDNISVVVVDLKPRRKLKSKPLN

T2: ABI2 (Arabidopsis thaliana, UniProt O04719)
T2 construct: Full length ABI1 and ABI2 were cloned into a modified pSUMO vector; made in house; host or cells: E. coli BL21 (DE3) pLysS
T2 sequence (O04719 1-423): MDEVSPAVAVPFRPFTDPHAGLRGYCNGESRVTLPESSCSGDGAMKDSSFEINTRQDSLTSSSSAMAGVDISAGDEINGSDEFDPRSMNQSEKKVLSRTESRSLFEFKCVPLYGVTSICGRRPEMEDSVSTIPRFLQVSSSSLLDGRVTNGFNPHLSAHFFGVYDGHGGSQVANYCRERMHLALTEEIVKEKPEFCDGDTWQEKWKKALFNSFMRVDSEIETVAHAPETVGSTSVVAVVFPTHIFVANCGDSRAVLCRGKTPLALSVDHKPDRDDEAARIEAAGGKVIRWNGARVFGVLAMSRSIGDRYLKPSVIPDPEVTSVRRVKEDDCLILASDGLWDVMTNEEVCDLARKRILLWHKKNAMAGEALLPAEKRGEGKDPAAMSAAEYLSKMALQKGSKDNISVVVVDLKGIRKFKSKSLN


Experiments:
[1] = tested on: HAB1; test: In vitro PP2C phosphatase (pNPP) receptor activation assay with HAB1; assay type: biochemical, Arabidopsis; conditions: 600 nM GST-HAB1, 0-4800 nM receptor, no ABA
Protocol: Recombinant receptor proteins were produced as follows: Coding sequences were cloned into pET28 yielding 6×HIS (SEQ ID NO:173) fusions proteins and transformed into E. coli expression strain BL21. […]. Cells were stored at −80° C. before purification. After thawing, cells were sonicated on ice five times for 30 sec with 30 sec resting intervals. A cleared lysate was obtained after centrifugation at 12,000×g for 10 min and applied to 1 ml of Ni-NTA column (Qiagen) and washed with 20 column volumes of Buffer A containing 30 mM imidazole. Bound protein was eluted with 10 ml of Buffer A with 250 mM imidazole. The elutate was dialyzed against TBS. The purified recombinant proteins were then used together with recombinant phosphatases in receptor assays. In these assays, receptor activity is indicated by inhibition of phosphatase activity, as inferred from initial reaction velocities for GST-HAB1 mediated hydrolysis of the synthetic phosphatase substrate pNPP. Reactions contained 600 nM GST-HAB1 and either 0, 600, 1200, 2400 or 4800 nM 6×His-PYR1 or variants in a reaction buffer consisting of 33 mM Tris-OAc, pH 7.9, 66 mM KOAc, 0.1% BSA, 25 mM Mn(OAc)2, 50 mM pNPP. To infer the level of receptor activation with respect to fully activated wild type receptor, control reactions were also conducted using saturating levels of (+)-ABA (10 μM), and 600 nM wild type PYR1 and HAB1. Immediately after mixing proteins and substrates, reactions were monitored for hydrolysis of pNPP at A405 at ˜10 second intervals over 20 minutes using a Wallac plate reader. Reaction progressions were plotted, initial velocities calculated and converted to specific activities using a standard curve for 4-nitrophenol made in the same buffer system volumes/plate reader used for enzymatic reaction measurements. The values shown are expressed as %-control phosphatase activity levels as measured in the absence of receptor protein. The average specific activity level of GST-HAB1 utilized in our experiments was 4000 μmol/min/mg, when assayed on the phosphatase substrate pNPP in the absence of PYR1 or other receptors, as described using the methods above.
(§1) Full length ABI1 and ABI2 were cloned into a modified pSUMO vector (LifeSensors Inc, USA) vector yielding 6×His-SUMO fusion proteins; GST-HAB1 was expressed and purified as previously described (Park et al., 2009). Mutant receptors were cloned into pET28 yielding 6×His-fusion proteins. […]. The cultures were pre-incubated 2 hours at 30° C. and, for PP2C expression, media was supplemented with 4 mM MnCl2 one hour after inoculation. After pre-incubation, IPTG was added (1 mM) and cells were induced at 15° C. for 16 hours, after which they were collected by centrifugation, resuspended in 5 ml Buffer A (50 mM NaH2PO4, 300 mM NaCl) +10 mM imidazole, pH 8.0 and stored at −80° C. For purification, cells were thawed, sonicated on ice (60 seconds) and a cleared lysate was then applied a 1 ml-bed volume column of Ni-NTA (Qiagen, USA), washed with 20 column volumes of Buffer A+30 mM imidazole and bound protein eluted with 1 ml of Buffer A+250 mM imidazole. For receptors, the elutate was dialyzed against TBS and for PP2Cs, fusion proteins were desalted by passage over a Sephadex G50 column.
The purified receptors and phosphatases were then used in receptor assays where receptor activation is indicated by inhibition of phosphatase activity, as inferred from initial reaction velocities for PP2C-mediated hydrolysis of the synthetic phosphatase substrate pNPP in reactions containing 600 nM PP2C and either 0, 600, 1200, 2400 or 4800 nM receptor. The receptor assay buffer consisted of 33 mM Tris-OAc, pH 7.9, 66 mM KOAc, 0.1% BSA, 25 mM Mn(OAc)2, 0.1%13-ME and 50 mM pNPP. Immediately after mixing proteins and substrates, reactions were monitored for hydrolysis of pNPP at A405 at ˜2 minutes intervals using a Wallac plate reader. […]

[2] = target: T1, ABI1; test: In vitro PP2C phosphatase (pNPP) receptor activation assay with ABI1; assay type: biochemical; conditions: 600 nM PP2C, 0-4800 nM receptor, no ABA
Protocol: as §1
(§2) The purified receptors and phosphatases were then used in receptor assays where receptor activation is indicated by inhibition of phosphatase activity, as inferred from initial reaction velocities for PP2C-mediated hydrolysis of the synthetic phosphatase substrate pNPP in reactions containing 600 nM PP2C and either 0, 600, 1200, 2400 or 4800 nM receptor. The receptor assay buffer consisted of 33 mM Tris-OAc, pH 7.9, 66 mM KOAc, 0.1% BSA, 25 mM Mn(OAc)2, 0.1%13-ME and 50 mM pNPP. Immediately after mixing proteins and substrates, reactions were monitored for hydrolysis of pNPP at A405 at ˜2 minutes intervals using a Wallac plate reader. Reaction progressions were plotted, initial velocities calculated and converted to specific activities by comparison to a standard curve for 4-nitrophenol made in the same buffer system. PP2C activity values shown in figures are expressed as %-control phosphatase activity levels, as measured under identical reaction conditions in the absence of receptor protein. The average specific activity level of GST-HAB1, 6×His-SUMO-ABI1 and 6×His-SUMO-ABI2 utilized in our experiments was 4500 (GST-PP2C) or 2500 (SUMO-PP2C) μmol/min/mg, when assayed using the phosphatase substrate pNPP in the absence of PYR1 or other receptors.

[3] = target: T2, ABI2; test: In vitro PP2C phosphatase (pNPP) receptor activation assay with ABI2; assay type: biochemical; conditions: 600 nM PP2C, 0-4800 nM receptor, no ABA
Protocol: as §1, §2

| Molecule | basal receptor activity (inhibition of HAB1 phosphatase activity in the absence of ABA) [1] | constitutive receptor activity on ABI1 in the absence of ABA [2] | constitutive receptor activity on ABI2 in the absence of ABA [3] |
| --- | --- | --- | --- |
| PYR1^CA3: PYR1 triple mutant (H60P, V83F, F159V) (protein) HHHHHHMPSELTPEERSELKNSIAEFHTYQLDPGSCSSLHAQRIHAPPELVWSIVRRFDKPQTYKPFIKSCSVEQNFEMRVGCTRDVIFISGLPANTSTERLDILDDERRVTGFSIIGGEHRLTNYKSVTTVHRFEKENRIWTVVLESYVVDMPEGNSEDDTRMVADTVVKLNLQKLATVAEAMARNSGDGSGSQVT | dramatically increased basal PYR1 activity | interact with ABI1 and ABI2 | interact with ABI1 and ABI2 |
| PYR1^CA4: PYR1 quadruple mutant (H60P, V83F, F159V, M158I) (protein) HHHHHHMPSELTPEERSELKNSIAEFHTYQLDPGSCSSLHAQRIHAPPELVWSIVRRFDKPQTYKPFIKSCSVEQNFEMRVGCTRDVIFISGLPANTSTERLDILDDERRVTGFSIIGGEHRLTNYKSVTTVHRFEKENRIWTVVLESYVVDMPEGNSEDDTRIVADTVVKLNLQKLATVAEAMARNSGDGSGSQVT | dramatically increased basal PYR1 activity | interact with ABI1 and ABI2 | interact with ABI1 and ABI2 |
| PYL2^CA4: PYL2 mutant (H65P, V87F, M1641, F165V) (protein) HHHHHHMSSSPAVKGLTDEEQKTLEPVIKTYHQFEPDPTTCTSLITQRIHAPASVVWPLIRRFDNPERYKPFVKRCRLISGDGDVGSVREVTFISGLPASTSTERLEFVDDDHRVLSFRVVGGEHRLKNYKSVTSVNEFLNQDSGKVYTVVLESYTVDIPEGNTEEDTKIVVDTVVKLNLQKLGVAATSAPMHDDE | highly activated in the absence of ABA | active towards multiple PP2Cs | active towards multiple PP2Cs |
| PYL9^CA4: PYL9 mutant (V85F, Y160I, F161V) (protein) HHHHHHMMDGVEGGTAMYGGLETVQYVRTHHQHLCRENQCTSALVKHIKAPLHLVWSLVRRFDQPQKYKPFVSRCTVIGDPEIGSLREVNFKSGLPATTSTERLELLDDEEHILGIKIIGGDHRLKNYSSILTVHPEIIEGRAGTMVIESFVVDVPQGNTKDETCIVVEALIRCNLKSLADVSERLASQDITQ | highly activated in the absence of ABA | active towards multiple PP2Cs | active towards multiple PP2Cs |

From patent US10704056B2, “Constitutively active ABA receptor mutants” (The Regents of the University of California, priority 2011, dated 2020)
